In experiment [1] the target is T1, human PD-1 extracellular domain protein expressed in Example 1 (tag not stated) (human, UniProt Q15116 25-170).
T1 construct: extracellular domain; also called PD-1 protein; not shown: human IgG1 Fc or his tag
In words: ELISA; 15 mg/mL in PBS, 37°C 0 day (-80°C).

The target in experiment [2] is T2, human TIM-3 extracellular domain-human IgG1 Fc fusion protein (human, UniProt Q8TDQ0 22-199).
T2 construct: Made in house or bought (ACROBiosystems TM3-H5258); also called TIM-3-hFc; not shown: human IgG1 Fc
In words: ELISA; 15 mg/mL in PBS, 37°C 0 day (-80°C).

Experiment [3] deals with T1, human PD-1 extracellular domain protein …. In words: ELISA; PBS, 37°C 14 days (degraded sample).
Experiment [4] addresses T2, human TIM-3 extracellular domain-human …. In words: ELISA; PBS, 37°C 14 days (degraded sample).
For experiment [5], the target named is T1, human PD-1 extracellular domain protein …. Nature of the experiment: ELISA; 40°C 0 day, against 0 day.
Experiment [6] deals with T2, human TIM-3 extracellular domain-human …. In words: ELISA; 40°C 0 day, against 0 day.
For experiment [7], the target named is T1, human PD-1 extracellular domain protein …. Nature of the experiment: ELISA; PBS, 37°C 7 days.
For experiment [8], the target named is T2, human TIM-3 extracellular domain-human …. Nature of the experiment: ELISA; PBS, 37°C 7 days.
Experiment [9] addresses T1, human PD-1 extracellular domain protein …. Nature of the experiment: blocking ELISA, PD-1 coated, competitor biotin-labeled PD-L1.
Experiment [10] has the same target. Nature of the experiment: ELISA; PBS, 0 day, against 0 day.
The target of experiment [11] is T2, human TIM-3 extracellular domain-human …. Nature of the experiment: ELISA; PBS, 0 day, against 0 day.
The target in experiment [12] is T1, human PD-1 extracellular domain protein …. Nature of the experiment: double-sandwich ELISA: PD-1 coated, LB141 titrated, detected with Bio-TIM-3-his and streptavidin-HRP.
Protocol: After discarding the liquid, 200 μl/well of blocking solution of 5% skimmed milk (Sangon Biotech (Shanghai) Co., Ltd., A600669-0250) diluted with PBS was added, and the microplate was placed at 4° C. overnight (16-18 hours) for blocking. After discarding the blocking solution, the microplate was washed 5 times with PBST buffer (pH 7.4 PBS containing 0.05% tween-20). […] Followed by washing the plate 5 times with PBST, 50 μl/well of 1 μg/ml Bio-TIM-3-his (ACROBiosystems, TM-H5229) was added and incubated at 37° C. for 1 hour. Then the microplate was washed 5 times with PBST again, and 50 μl/well 1:1000 diluted streptavidin-HRP secondary antibody (Nanjing Genscript Biotech Corporation, M00091) was added and incubated at 37° C. for 1 hour. After washing the microplate 5 times with PBST, 50 μDwell TMB chromogenic substrate (KPL, 52-00-03) was added and incubated at room temperature for 5-10 min.

B1: bispecific antibody LB141 (bispecific antibody, human IgG4 S228P, kappa)
light: EIVLTQSPATLSLSPGERATLSCRASKGVSTSGYSYLHWYQQKPGQAPRLLIYLASYLESGVPARFSGSGSGTDFTLTISSLEPEDFAVYYCQHSRDLPLTFGGGTKVEIKRTVAAPSVFIFPPSDEQLKSGTASVVCLLNNFYPREAKVQWKVDNALQSGNSQESVTEQDSKDSTYSLSSTLTLSKADYEKHKVYACEVTHQGLSSPVTKSFNRGEC
heavy: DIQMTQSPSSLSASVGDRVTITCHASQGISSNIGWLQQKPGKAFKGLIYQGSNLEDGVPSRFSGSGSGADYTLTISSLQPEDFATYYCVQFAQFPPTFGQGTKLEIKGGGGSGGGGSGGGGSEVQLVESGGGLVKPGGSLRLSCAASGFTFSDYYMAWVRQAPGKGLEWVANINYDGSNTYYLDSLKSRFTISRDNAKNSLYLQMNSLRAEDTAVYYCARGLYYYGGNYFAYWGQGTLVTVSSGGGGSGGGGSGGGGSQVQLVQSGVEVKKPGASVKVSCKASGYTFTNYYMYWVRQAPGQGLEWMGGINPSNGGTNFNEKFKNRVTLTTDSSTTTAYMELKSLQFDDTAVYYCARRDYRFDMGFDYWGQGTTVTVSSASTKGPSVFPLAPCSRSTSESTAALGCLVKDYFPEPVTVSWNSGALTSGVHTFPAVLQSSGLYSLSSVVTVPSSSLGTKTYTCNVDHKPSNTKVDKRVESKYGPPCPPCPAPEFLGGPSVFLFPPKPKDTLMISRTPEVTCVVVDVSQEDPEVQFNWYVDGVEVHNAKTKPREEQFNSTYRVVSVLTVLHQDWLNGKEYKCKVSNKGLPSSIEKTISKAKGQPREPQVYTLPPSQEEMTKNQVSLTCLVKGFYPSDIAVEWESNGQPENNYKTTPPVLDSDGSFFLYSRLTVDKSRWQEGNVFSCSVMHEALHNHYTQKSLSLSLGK
notes: ab6VL-(G4S)3-ab6VH-(G4S)3-PemVH-hIgG4 with PemVL-κ
In the case of B1, the concentration for a half-maximal effect (EC50) is 293 pM in experiment [1]; 253 pM in [2]; 400 pM in experiment [3]; 685 pM in experiment [4]; 339 pM in experiment [7]; 325 pM in [8]. Besides, the 50% effective concentration (EC50) in experiment [12] came out at 816 pM. Further, the “Fold change of EC50” value in experiment [5], in [6], in [10] and in experiment [11] was 1 ratio each time. The IC50 in [9] is 1660 pM.

The values are drawn from patent publication US20210269521A1 (L AND L BIOPHARMA, published 2021).
